We go through 1 substance from PMC13541077.

The assay concerns the target recombinant soluble PRRSV-1 Olot/91 glycoprotein 3 ectodomain (sGP3) (PRRSV-1 (Betaarterivirus europensis), strain Olot/91). Nature of the assay: mass photometry; Refeyn MPOne; GP3 at 20 nM in filtered PBS, triplicate; calibrated with BSA, beta-amylase and thyroglobulin.

On to “recombinant soluble PRRSV-1 Olot/91 glycoprotein 3 ectodomain (sGP3) (domain or fragment)”, for which the stoichiometry N – broadly, a count of units in the complex or per binding partner – was 2.
